Kd and EC50 data for three molecules are collected here from patent publication US20190300610A1 (published 2019).

One assay deals with -. Put plainly: BLI; Figure 25B. (Biolayer interferometry detects binding as a change in optical thickness at a sensor tip.)
In assay [1] the target is T1, cynomolgus macaque VISTA polypeptide (ELISA coat) (cynomolgus macaque, UniProt A0A7N9IB00 33-194).
T1 chain: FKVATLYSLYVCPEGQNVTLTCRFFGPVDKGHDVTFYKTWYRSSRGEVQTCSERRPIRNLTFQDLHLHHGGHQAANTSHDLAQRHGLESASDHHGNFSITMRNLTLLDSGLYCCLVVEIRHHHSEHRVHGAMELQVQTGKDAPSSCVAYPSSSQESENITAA
Put plainly: ELISA. Background: In an ELISA, binding on a coated surface is turned into a signal by an enzyme label.

Assay [2] has as its target human VISTA polypeptide (ELISA coat) (UniProt Q9H7M9 33-194). The assay can be described thus: ELISA.

B1: mFcγRIII (receptor)
chain: ALPKAVVKLDPPWIQVLKEDMVTLMCEGTHNPGNSSTQWFHNGRSIRSQVQASYTFKATVNDSGEYRCQMEQTRLSDPVDLGVISDWLLLQTPQRVFLEGETITLRCHSWRNKLLNRISFFHNEKSVRYHHYKSNFSIPKANHSHSGDYYCKGSLGSTQHQSKPVTITVQDPATTSSISLVWYHT
Consider B1, for which the dissociation constant (Kd) (as a rule, a measure of binding affinity in units of concentration) in the assay with - was 455 nM.

B2: VSTB112 IgG1 (antibody, V domains shown)
VH: QVQLVQSGAEVKKPGSSVKVSCKASGGTFSSYAISWVRQAPGQGLEWMGGIIPIFGTANYAQKFQGRVTITADESTSTAYMELSSLRSEDTAVYYCARSSYGWSYEFDYWGQGTLVTVSS
VL: DIQMTQSPSSLSASVGDRVTITCRASQSIDTRLNWYQQKPGKAPKLLIYSASSLQSGVPSRFSGSGSGTDFTLTISSLQPEDFATYYCQQSAYNPITFGQGTKVEIKR
Take B2: the EC50 – broadly, the concentration that produces a half-maximal response – in assay [1] came to 0.0052 nM.

B3: anti-VISTA clone 4M2-C12 IgG1 (antibody)
heavy: not shown
light: DIVITQTPAILSTSPGEKVTMTCRASSSVGYIHWYQQKPGSSPKPWIYATSNLASGVPARFSGSGSGTSNSLTITRVEAEDAATYYCQQWSSYPPITFGGGTKLEVKRTVAAPSVFIFPPSDEQLKSGTASVVCLLNNFYPREAKVQWKVDNALQSGNSQESVTEQDSKDSTYSLSSTLTLSKADYEKHKVYACEVTHQGLSSPVTKSFNRGEC
B3 displayed an EC50 in assay [2] of 0.246 nM.
